Laboratory results: the supplement of paper PMC10567573

B1: MYBL2 (parent)
chain: VKKSCWTEEEDRIICEAHKVLGNR

Variants of: B1
Assay: protein stability index of a GFP-peptide fusion (GPS, HEK-293T) (PSI 1-6); higher = more stable
Conditions: c terminus: a fixed tail appended
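Also: lentivirally expressed fusions sorted by FACS into six bins by GFP to DsRed ratio, PSI derived from sequencing read proportions per bin multiplied by bin number.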

Protein stability index of substitutions, site by site:
L21: G 3.44; A 3.42; M 3.79; C 3.66; I 3.15; F 2.94; D 4.36; K 3.26; E 3.83; H 3.53
E9: P 2.82; W 2.35; Y 2.16; S 2.66; H 2.69; V 2.45; Q 3.45; L 2.98; F 2.31; T 3.28; K 3.37; M 2.1; R 2.58; A 2.59; G 2.8; N 3.3; I 2.57; D 3.34; C 2.6
C5: P 3.69; I 3.24; L 2.01; R 3.88; W 2.73; Q 4.21; K 3.53; V 3.31; N 3.38; G 3.75; M 3; E 4.19; D 3.77; H 3.63; Y 3.47; T 3.79; A 3.47; S 4.1; F 3.22
K3: W 2.21; Y 2.76
E10: N 3.21; I 2.39; W 1.78; Q 3.26; M 1.99; H 3.08; C 2.27; P 2.99; V 2.13; A 2.38; S 2.96; K 2.99; T 2.47; Y 2.28; L 2.06; D 3.1; G 3.15; R 2.65; F 1.99
A17: H 3.46; I 2.09; G 4.14; K 3.68; T 2.92; R 3.51; V 2.37; D 4.36; S 3.36; Q 3.83; P 3.12; C 2.12; Y 2.39; E 3.49; W 2.55; F 2.65; N 3.88; M 3.03; L 1.59
E8: I 1.85; D 3.11; F 2.48; H 3.33; G 2.44; C 2.61; P 3.4; V 2.85; M 3.37; R 2.9; N 4.1; Q 3.5; Y 2.79; L 2.69; A 3.12; S 3.51; W 2.47; T 2.45; K 3.17
H18: N 3.88; I 2.91; A 3.47; R 2.69; P 4; V 2.2; G 3.2; S 3.81; D 4.01; Q 3.35; C 1.8; T 3.79; F 2.63; E 3.83; K 3.73; M 2.73; W 2.18; Y 2.56; L 2.45
I14: S 4.11; R 3.7; W 3.12; E 4.24; V 3.71; Q 4; N 3.28; M 3.29; Y 3.23; T 4.39; G 2.86; P 3.67; L 3.41; D 3.69; C 3.3; A 4.24; H 4.29; F 2.91; K 4.53
E16: W 2.39; Q 3.14; T 2.72; N 3.15; I 1.84; C 1.94; P 3.54; L 1.83; A 2.84; R 3.13; Y 2.32; F 1.69; V 2.31; K 3.08; H 3.1; S 3.06; G 4; M 1.78; D 3.66
T7: Q 2.59; G 3.02; A 2.98; Y 2.93; N 3.14; E 2.82; R 3.59; P 3.65; H 2.95; F 2.2; M 3.03; L 3.11; C 3.05; V 3.54; K 3.51; W 2.32; I 4; D 3.76; S 2.83
W6: C 4.48; H 3.07; P 4.4; Q 4.36; L 3.85; D 4.33; R 3.87; E 4.7; N 4.17; K 4.05; Y 3.5; M 3.99; S 4.09; T 3.94; V 3.5; G 3.97; F 3.54; I 3.7; A 3.92
D11: N 3.72; F 1.59; I 1.71; V 3.39; G 3.01; Q 3; C 2.53; R 2.85; P 2.76; T 2.83; Y 2.38; K 2.74; E 3.43; M 2.12; L 2.21; H 3.57; S 2.8; W 2.42; A 2.95
V20: F 2.86; A 3.51; E 4.03; M 3.15; N 3.99; S 3.55; C 3.84; K 3.67; T 3.34; I 2.75; W 2.04; R 3.59; G 3.67; L 3.15; Y 3.12; P 3.72; Q 4.5; D 4.37; H 2.55
I13: H 3.29; D 4.37; K 3.82; C 2.77; V 4.55; T 3.74; M 3.67; W 2.47; Q 4.24; A 4.41; N 3.46; Y 3.01; L 3.06; G 4.41; S 4.32; F 3; R 3.19; P 3.85; E 3.5
R12: D 3.15; P 3.38; Y 3.16; N 3.7; E 3.48; S 3.25; L 2.87; V 3.28; A 3.29; C 2.17; K 4.05; W 2.22; I 3.38; T 3.2; Q 3.62; H 3.55; F 3.1; G 3.58
C15: M 2.87; S 3.69; L 3.82; K 3.47; R 3.36; V 3.85; D 4.16; W 2.59; G 4.39; E 3.94; Y 3.01; I 3.47; Q 3.85; T 3.74; H 3.76; N 3.65; P 4.16; F 2.79; A 3.43
K19: I 2.03; V 3.5; N 3.41; E 4.27; S 4.02; G 3.67; R 3.23; H 2.99; M 2.93; C 3.3; D 3.86; A 3.21; Y 2.59; L 2.69; F 2.19; T 3.44; W 1.91; P 3.28; Q 4.09
S4: G 3.53; K 3.49; T 2.97; F 2.83; A 3.31; N 3.51; H 2.77; Q 3.17; R 3; M 3.06; I 3.21; L 3.33; D 3.58; W 1.98; V 3.41; E 3.82; C 2.53; P 3.49; Y 2.27
